Patent US20150023971A1

What was measured:
[1] = molecular target: T1, …; assay: SPOT length analysis, dot 23, anti-histidine detection
T1 sequence (peptide): IFRSSDFAKN

[2] = molecular target: T2, …; assay: SPOT length analysis, dot 32, anti-histidine detection
T2 sequence (peptide): RSSDFAKNF

[3] = molecular target: T3, …; assay: SPOT length analysis, dot 2, anti-histidine detection
T3 sequence (peptide): RIFRSSDFAKNFVQT

SSDF = molecular target: T4, SSDF; assay: SPOT length analysis, dot 83, anti-histidine detection
T4 sequence (peptide): SSDF

FVQTD [4] = molecular target: T5, FVQTD; assay: SPOT length analysis, dot 78, HRP-S-protein detection
T5 sequence (peptide): FVQTD

FAKNFVQ [5] = molecular target: T6, FAKNFVQ; assay: SPOT length analysis, dot 53, anti-histidine detection
T6 sequence (peptide): FAKNFVQ

FAKN = molecular target: T7, FAKN; assay: SPOT length analysis, dot 86, HRP-S-protein detection
T7 sequence (peptide): FAKN

IFRSSDFA = molecular target: T8, IFRSSDFA; assay: SPOT length analysis, dot 38, HRP-S-protein detection
T8 sequence (peptide): IFRSSDFA

[6] = molecular target: T9, sortilin 4-mer peptide RIFR (length analysis); assay: SPOT length analysis, dot 79, anti-histidine detection
T9 sequence (peptide, C-terminus anchored to the cellulose membrane through a beta-alanine linker): RIFR

[7] = molecular target: T10, …; assay: SPOT length analysis, dot 7, HRP-S-protein detection
T10 sequence (peptide): RIFRSSDFAKNFV

AKNFV = molecular target: T11, AKNFV; assay: SPOT length analysis, dot 75, anti-histidine detection
T11 sequence (peptide): AKNFV

FRSSDFAK = molecular target: T12, FRSSDFAK; assay: SPOT length analysis, dot 39, HRP-S-protein detection
T12 sequence (peptide): FRSSDFAK

KNFVQT = molecular target: T13, KNFVQT; assay: SPOT length analysis, dot 65, anti-histidine detection
T13 sequence (peptide): KNFVQT

[8] = molecular target: T14, sortilin peptide RIFRSSDF on SPOT membrane; assay: SPOT length analysis, dot 37, HRP-S-protein detection
T14 sequence (peptide, C-terminus anchored to the cellulose membrane through a beta-alanine linker): RIFRSSDF

KNFVQ = molecular target: T15, KNFVQ; assay: SPOT length analysis, dot 76, anti-histidine detection
T15 sequence (peptide): KNFVQ

SSDFAKNF = molecular target: T16, SSDFAKNF; assay: SPOT length analysis, dot 41, HRP-S-protein detection
T16 sequence (peptide): SSDFAKNF

FRSSDF = molecular target: T17, FRSSDF; assay: SPOT length analysis, dot 58, HRP-S-protein detection
T17 sequence (peptide): FRSSDF

[9] = molecular target: T18, …; assay: SPOT length analysis, dot 15, anti-histidine detection
T18 sequence (peptide): SSDFAKNFVQTD

AKNFVQTD = molecular target: T19, AKNFVQTD; assay: SPOT length analysis, dot 45, anti-histidine detection
T19 sequence (peptide): AKNFVQTD

DFAKNFVQ = molecular target: T20, DFAKNFVQ; assay: SPOT length analysis, dot 43, HRP-S-protein detection
T20 sequence (peptide): DFAKNFVQ

[10] = molecular target: T21, …; assay: SPOT length analysis, dot 12, anti-histidine detection
T21 sequence (peptide): IFRSSDFAKNFV

SDFAKN = molecular target: T22, SDFAKN; assay: SPOT length analysis, dot 61, anti-histidine detection
T22 sequence (peptide): SDFAKN

FAKNFV [11] = molecular target: T23, FAKNFV; assay: SPOT length analysis, dot 63, anti-histidine detection
T23 sequence (peptide): FAKNFV

FAKNFVQ [12] = molecular target: T6, FAKNFVQ; assay: SPOT length analysis, dot 53, HRP-S-protein detection
[13] = molecular target: T24, sortilin peptide … (synthetic, soluble); assay: SPOT length analysis, dot 11 (peptide here cellulose-bound), anti-histidine detection
T24 sequence (peptide): RIFRSSDFAKNF

RSSDFAK = molecular target: T25, RSSDFAK; assay: SPOT length analysis, dot 49, HRP-S-protein detection
T25 sequence (peptide): RSSDFAK

RIFRS = molecular target: T26, RIFRS; assay: SPOT length analysis, dot 67, HRP-S-protein detection
T26 sequence (peptide): RIFRS

FRSSD = molecular target: T27, FRSSD; assay: SPOT length analysis, dot 69, anti-histidine detection
T27 sequence (peptide): FRSSD

IFRSS = molecular target: T28, IFRSS; assay: SPOT length analysis, dot 68, HRP-S-protein detection
T28 sequence (peptide): IFRSS

[14] = molecular target: T29, …; assay: SPOT length analysis, dot 21, HRP-S-protein detection
T29 sequence (peptide): SDFAKNFVQTD

FRSS = molecular target: T30, FRSS; assay: SPOT length analysis, dot 81, HRP-S-protein detection
T30 sequence (peptide): FRSS

[15] = molecular target: T31, …; assay: SPOT length analysis, dot 6, anti-histidine detection
T31 sequence (peptide): FRSSDFAKNFVQTD

IFRS = molecular target: T32, IFRS; assay: SPOT length analysis, dot 80, anti-histidine detection
T32 sequence (peptide): IFRS

DFAKNF [16] = molecular target: T33, DFAKNF; assay: SPOT length analysis, dot 62, anti-histidine detection
T33 sequence (peptide): DFAKNF

AKNFVQ = molecular target: T34, AKNFVQ; assay: SPOT length analysis, dot 64, HRP-S-protein detection
T34 sequence (peptide): AKNFVQ

NFVQTD = molecular target: T35, NFVQTD; assay: SPOT length analysis, dot 66, HRP-S-protein detection
T35 sequence (peptide): NFVQTD

[17] = molecular target: T36, …; assay: SPOT length analysis, dot 29, HRP-S-protein detection
T36 sequence (peptide): RIFRSSDFA

FAKNF = molecular target: T37, FAKNF; assay: SPOT length analysis, dot 74, HRP-S-protein detection
T37 sequence (peptide): FAKNF

[18] = molecular target: T38, …; assay: SPOT length analysis, dot 5, anti-histidine detection
T38 sequence (peptide): IFRSSDFAKNFVQT

[19] = molecular target: T39, …; assay: SPOT length analysis, dot 17, HRP-S-protein detection
T39 sequence (peptide): IFRSSDFAKNF

DFAKNFV [20] = molecular target: T40, DFAKNFV; assay: SPOT length analysis, dot 52, HRP-S-protein detection
T40 sequence (peptide): DFAKNFV

[21] = molecular target: T41, …; assay: SPOT length analysis, dot 10, HRP-S-protein detection
T41 sequence (peptide): RSSDFAKNFVQTD

DFAKNFV [22] = molecular target: T40, DFAKNFV; assay: SPOT length analysis, dot 52, anti-histidine detection
DFAKNF [23] = molecular target: T33, DFAKNF; assay: SPOT length analysis, dot 62, HRP-S-protein detection
FAKNFV [24] = molecular target: T23, FAKNFV; assay: SPOT length analysis, dot 63, HRP-S-protein detection
[25] = molecular target: T2, …; assay: SPOT length analysis, dot 32, HRP-S-protein detection
FVQTD [26] = molecular target: T5, FVQTD; assay: SPOT length analysis, dot 78, anti-histidine detection

- BLU His [1]: 19700 BLU
- BLU His [2]: 21100 BLU
- BLU His [3]: 113000 BLU
- BLU His (SSDF): 14100 BLU
- BLU Sprotein (FVQTD [4]): 15100 BLU
- BLU His (FAKNFVQ [5]): 69600 BLU
- BLU Sprotein (FAKN): 13700 BLU
- BLU Sprotein (IFRSSDFA): 24400 BLU
- BLU His [6]: 127000 BLU
- BLU Sprotein [7]: 168000 BLU
- BLU His (AKNFV): 17500 BLU
- BLU Sprotein (FRSSDFAK): 19200 BLU
- BLU His (KNFVQT): 15400 BLU
- BLU Sprotein [8]: 114000 BLU
- BLU His (KNFVQ): 18200 BLU
- BLU Sprotein (SSDFAKNF): 16300 BLU
- BLU Sprotein (FRSSDF): 16900 BLU
- BLU His [9]: 19200 BLU
- BLU His (AKNFVQTD): 16000 BLU
- BLU Sprotein (DFAKNFVQ): 14700 BLU
- BLU His [10]: 45100 BLU
- BLU His (SDFAKN): 15100 BLU
- BLU His (FAKNFV [11]): 142000 BLU
- BLU Sprotein (FAKNFVQ [12]): 20300 BLU
- BLU His [13]: 100000 BLU
- BLU Sprotein (RSSDFAK): 16400 BLU
- BLU Sprotein (RIFRS): 137000 BLU
- BLU His (FRSSD): 15600 BLU
- BLU Sprotein (IFRSS): 38500 BLU
- BLU Sprotein [14]: 16900 BLU
- BLU Sprotein (FRSS): 37000 BLU
- BLU His [15]: 18800 BLU
- BLU His (IFRS): 51100 BLU
- BLU His (DFAKNF [16]): 15200 BLU
- BLU Sprotein (AKNFVQ): 14100 BLU
- BLU Sprotein (NFVQTD): 14500 BLU
- BLU Sprotein [17]: 60900 BLU
- BLU Sprotein (FAKNF): 17500 BLU
- BLU His [18]: 53400 BLU
- BLU Sprotein [19]: 127000 BLU
- BLU Sprotein (DFAKNFV [20]): 17400 BLU
- BLU Sprotein [21]: 20700 BLU
- BLU His (DFAKNFV [22]): 17300 BLU
- BLU Sprotein (DFAKNF [23]): 15200 BLU
- BLU Sprotein (FAKNFV [24]): 29600 BLU
- BLU Sprotein [25]: 19500 BLU
- BLU His (FVQTD [26]): 22400 BLU
B1: recombinant his-S-tagged pro-domain of human BDNF (residues Ala1-Arg110), from pET-30 Xa/LIC, E. coli (protein, not shown: small tags and cut ends)
chain: APMKEANIRGQGGLAYPGVRTHGTLESVNGPKAGSGLTSLADTFEHVIEELLDEDQKVRPNEENNKDADLYTSRVMLSSQVPLEPPLLFLLEEYKNYLDAANMSMRVRR
